Data: the RNAGym collection of RNA variant scans (doi:10.1073/pnas.2313332121)

B1: TPR t1 (parent)
chain: GACCAAUCUGCCCUCAGAGCUCGAGAACAUCUUCGGAUGCAGAGGAGGCAGGCUUCGGUGGCGCGAUAGCGCCAACGUCCUCAACCUCCAAUGCAUCCCACCACAUGAUGAUGCCUGAAGAGCCUUGGUUUUUUG

Variants of: B1
Test: polymerase ribozyme fitness, log enrichment relative to wild type (log ratio); higher = more active; in vitro selection for triplet polymerase activity
Outline: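 Mutant libraries were PCR-built and transcribed for each subunit of a heterodimeric triplet polymerase ribozyme and selected for one round in triplicate at −7 °C, frozen, before gel excision of extended constructs and streptavidin-bead capture. Input and output libraries were Illumina-sequenced, keeping genotypes with ≥10 input reads and ≥1 read per output. Fitness is a logarithmic ratio of genotype to wild-type enrichment, in base 2, using inverse-variance-weighted replicate averages.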

Variant	polymerase ribozyme fitness (log ratio)
GACCAAUCUGCCUUCAGAGCUCGAGAACAUCUUCGGAUGCAGAGGAGGCAGGCUUCGGUGGCGCGCUAGCGCCAACGUCCUCAACCUCCAAUGCAUCCCACCACAAGAUGAUGCCUGAAGAGCCUUGGUUUUUUG	-0.839
GACCAAUCUGCCUUUAGAGCUCGAGAACAUCUUCGGAUGCAGAGGAGGCAGGCUUCGGUGGCGCGAUAGCGCCAACGUCCUCAACCUCCAAUGCAUCCCACCACAUGAUGAUGCCUGAAGAGCCUUGGUUUUUUG	-2.01
GACCAAUCUGCCUUCAGAGUUCGAGAACAUCUUCGGAUGCAGAGGAGGCAGGCUUCGGUGGCGCGAUAGCGCCAACGUCCUCAACCUCCAAUGCAUCCCACCACAUGAUGAUGCCUGAACAGGCUUAGUUUUUUG	-2.54
GACCAAUCUGCCUUCAGAGCUCGAGAACAUCUUCGGAUGCGGAGGAGGCAGGCUUCGGUAGCGCGAUAGCGCCAACGUCCUCAACCUCCAAUGUAUCCCACCACAUGAUGAUGCUUGAAGAGCCUUGGUUUUUUG	-1.95
GACCAAUCUGCCUUCAGAGCUUGAGAACAUCUUCGGAUGCAGAGGAGGCAGGCUUCGGUGGCGCGAUAGCGCCAACGUCCUCAACUUCCAAUGCAUCCCACCACAUGAUGAUGCCUGAAGAGCCUUGGUUUUUUG	-4.45
GACCAAUCUGCCUUCAGAGCUCGAGAACAUCUUCGGAUGCAGAGGAGGCAGGCUUCGGUGGCGCGAUAGCGCCAACGUCCUCAACCUCCUAUGCAUCCCACCACAUGAUGAUGCCUCAAGAGCCUUGGUUUUUUG	-3.61
GACCAAUCUGCCUUUAGAGCUCGAGACCGUCUUCGGAUGCAGAGGAGGCAGGCUUCGGUGGCGCGAUAGCGCUAACGUCCUCAACCUCCAAUGCAUCCCACCACAUGAUGAUGCCUGAAGAGCCUUGGUUUUUUG	-4.69
GACCAAUCUGCCUUCAGAGCUGGAGAACAUCUUCGGAUGCAGAAGAGGCAGGCUUAGGUGGCGCGAUAGCGCCAACGUCCUCAACCUCCAAUGCAUCCCACCACAUGAUGAUGCCUGAAGAGCCUUGGUUUUUUG	-5.28
GACCAAUCUGCCUUCAGAGCUCGAGAACAUCUUCGGAUGCAGAGGAGGCAGGCUUCGGUGGCGCGUUAGCGCCAACGUCCUCAACCUCCAAUGCAUCCCACCACAUGAUGAUGCCCGAAGAGCCUUGGUUUUUUG	-0.492
GACCAAUCUGCCUUCAGAGCUCGAGAAGAUCUUCGGAUGCAGAGGAGGCAGGCUUCGGUGGCGCGAUAGCGCCAACGUCCUCAACCUCCAAUGCAUCCCACCACAUGAUGAUGCCUGAAGAGCCUUGGUUUUUUG	-1.58
GACCAAUCUGCCUUCAGAGAUCGAGAGCAUCUUCGGAUACAGAGGAGGCAGGCUUCGGUAGCGCGAUAGCGCCAACGUCCUCAACCUCCAAUGCAUCCCACCACAUGAUGAUGCAUGAAGAGCCUUGGUUUUUUG	-5.26
GACCAAUCUGCCUUCAGAGCUCGAGAACAUCUUCGGAUGCAGAGGUGGCAGGCGUCGGUGGCGCGAUAGCGCCAACGUCCUCAACCUCCAAUGCUUCCCACCACAUGAUGAUGCCUGAAGAGUCUUGGUUUUUUG	1.11
GACCAAUCUGCCUUCAGAGUUCGAGAACAUCUUCGGAUGCAGAGGAGGCAGGCUUCGGUGGCGCGAUAGCGCCAACGUCCUCAACCUCCAAUGCAUCCCACCACAUGAUGAUGCCUGAAGAGCCUUGGUUUUUUG	-0.561
GACCAAUCUGCCUUCAGAGAUCGAGAACAUCUUCGGAUGCAGAGGAGGCAGGCUUCGGUGGCGCGAUAGCGCCAACGUCCUCAACCUCCAAUGCAUCCCACCACAUGAUGAUGCCUGAAGAGCCUUGGUUUUUUG	-2.74
GACCAAUCUGCCUUCAGAGCUCGAGAACAUCUUCGGAUGCAGAGGAGGCAGGCUUCGGUGGCGCGAUAGCGCCAACGUCCUCAACCUCCAAUGCAUCCCACCACCUGAUGAUGCCUGAAGAGCCUUGGUUUUUUG	-1.68
GACCAAUCUGCCUUUAGAGUUCGAGAACAUCUUCGGAUGCAGAGGAGGCAGGCUUCGGUGGCGCGAUAGCGCCAACGUCCACAACCUCCCAUGCAUCCCACCACAUGAUGAUGCUUGAAGAGCCUUGGUUUUUUG	-4.72
GACCAAUCUGCCUUCAGAGCUCGAGAACAUCUUCGGAUGCAGAGGAGGCUGGCUUCGGUGGCGCGAUAGCGCCAACCUCCUCAACCUCCAAUGCAUCCCACCACAUGAUGAUGCCUGAAGAGCCUUGGUUUUUUG	-1
GACCAAUCUGCCUUUAGAGCUCGAGAACAUCGUCGGAUGCAGAGGAGGCAGGCUUCGGUGGCGCGAUAGCGCCAACGUCCUCAACCUCCAAUGCAUCCCACCACAUGAUGAUGCCUGAAGAGCAUUGGUUUUUUG	-6.8
GACCAAUCUGCCUUCAGAGAGCGCGAACAUCUUCGGAUGCAGAGGAGGCAGGCUUCGGUGGCGCGAUAGCCCCAACGUCCUCAACCUCCAAUGCAUCCCACCACAUGAUGACGCCUGAAGAGACUUGGUUUUUUG	-6.62
GACCAAUCUGCCUUCAGAGUUCGAGAACAUCUUCGGAUGCAGAGGAGGCAGGCUUCGGUGGCGCGAUAGCGCCUACGUCCUCAACCUCCAAAGCAUCCCACCACAUGAUGAUGCCUGAAGAGCCUUGGUUUUUUG	-3.91
GACCAAUCUGCCUUCAGAGCUCGAGAACAUCUUCGGAUGCAGAGGAGGCAGGCUUCGGUGGCGCGAUAGCGCCAACGUCCUCAUCCUCCAAUGCAUCCCACCACAUGAUGAUGCCUGAAGAGCCUUGGUUUUUUG	-0.00977

Variant	polymerase ribozyme fitness (log ratio)
GACCAAUCUGCCUUAAGAGCUCGAGAACAUCUUCGGAUGCAGAGGAGGCAGGCUUCGGUGGCGCGAUAGCGCCAACGUCCUCAACCUCCACUGCAUCCCACCACAUGAUGAUGCCUGAAGAGCCUUGGUUUUUUG	-4.3
GACCAAUCUGCCUUCAGAGCUCGAGAACAUCUUCGGAUGCUGAGGAGGCAGGCUUCGGUGGCUCGAUAGCGCCAACGUCCUCAACCUCCAAUGCAUCCCACCACAUGAUGAUGCCUGAAGAGCCUUGGUUUUUUG	-2.71
GACCAAUCUGCCUUCAGAGUUCGAGAACAUCUUCGGAUGCAGAGGAGGCAAGCUUCGGUGGCGCGGUAGCGUCAACGUCCUCAACCUCCAAUGCAUCCCACCACAUGAAGAUGCCUGAAGAGCCUUGGUUUUUUG	-6.73
GACCAAUCUGCCUUCAGAGCUCGAGAACAUCUUCGGAUGCAGGGGAGGCAGGCUUCGGUAGCGCGAUAGCGCCAACGUCCUCAACCUCCAAGGCAUCCCACCACAUGAUGAUGCCCGAAGAGCCUUGGUUUUUUG	-3.1
GACCAAUCUGCCUUCAGAGUUCGAGAACAUCUUCGGAUGCAGAGGAGGCAGGCUUCGGUGUCGCGAUAGUGCCAACGUCCUCAACCUCCAACGCAUCCCACCACAUGAUGAUGCCUGAAGAGCCUUGGUUUUUUG	-4.03
GACCAAUCUGCCUUCAGAGCUUGAGAACAUCUUCGGAUGCAGAGGAGGCAGGCUUCGGUGGCGCGAUAGCGCCAACGUCCUAAACCUCCAAUGAAUCCCACCACAUGAUGAUGCCUGAAGUGCCUUGGUAUUUUG	-3.54
GACCAAUCUGCCUUCAGAGUUCGAGAACAUCUUCGGAUGCAGAGGAGGCAGGCUUCGGUGGCGCGAUAGCGCCAACGUCCUCGACCUCCAAUGCAACCCACCACAUGAUGAUGCCUGAAGAGCCUUGGUUUUUUG	-3.34
GACCAAUCUGCCUUCAGAGCUCGAGAACAUCUUCGGAUGCAGAGGGGGCAGGCUUCGGUGGCGCGAUAGCGCCAACGUCCUCAACCUCCAAUGCAUCCCACCACAUGAUGAUGCCUGAAGAGCCUUGGUUUUUUG	-1.03
GACCAAUCUGCCUUCAGAGCUCGAGAACAUCUUCGGAUGCGGAGGAGACAGGCUUCUGUGGCGCGAUAGCGCCAACGUCCUCAACCUCCAAUGCAUCCCACCACAUGAUGAUGCCUGAAGAGCCUUGGUUUCUUG	-1.47
GACCAAUCUGCCUUCAGAGCUCGAGAACAUCUUCGGAUGCAGUGGAGGCAGGCUUCGGGGGCGCGAUAGCGACAACGUCCUCAACCUCCAAUGCAUCCCACCAUAUGAUGAUGCCUGAAGAGCCUUGGUUUUUUG	-2.63
GACCAAUCUGCCUUCAGAGUUCGAGAACAUCUUCGGAUGCAGAGGAGGCAGGCUUCGGUGACGCGAUAGCGCCAACGUCCUCAACCUCCAACGCAUCCCACCACAUGAUGAUGCCUGAAGAGCCUUGGUUUUUUG	-1.11
GACCAAUCUGCCUUCAGAGCUCGAGAACAUCUUCGGAUGCAGAGGAGGCAGGCUUCGGUGGCGCGAUGGCGCUAACGUCCUCAACCUCCAAUGCAUCCCACCACAUGAUGAGGCCUGAAGAGCCUUGGUUUUUUG	-3.26
GACCAAUCUGCCUUCAGAGCUGGAGAACAUCUUCGGAUGCUGAGGAGGCAGGCUUCGGUGGCGCGAUAGCGUCAACGGCCCCAACCUCCAAUGCAUCCCACCACAUGAUGAUGCCUGAAGAACCUUGGUUUUUUG	-4.05
GACCAAUCUGCCUUCAGAGCUCGAGAACAUCUUCGGAUGCAGAGGAGGCAGGCUUCGGUGGCGCGGUAGCGCCAAUGUCCUCAACCUUCAAUGCAUCCCACCACAUGAUGAUGCCUGAAGAGCCUUGCUUUUUUG	-3.51
GACCAAUCUGCCUUCAGAGCUCGAGAAAAUCUUCGGAUGCAGAGGAUGCAGGCUUCGGUGGCGCGAUAGCGCCAACGUCCUCAACCUCCAAUGCAUCCCACCACAUGAUGAUGCCUGAAGAGCCUUGGUUUUUUG	-4.54
GACCAAUCUGCCUUCAGAGAUCGAGAACAUCUUCGGAUGCAGAGGAGGCAGGCUUCGGUGGCGCGAUAGCGACAACGUCCUCAACCUCCAAUGCAUCCCACCACAUGAUGAUGCCUGAAGAGCCUUGGUUUUUUG	-2.75
GACCAAUCUGCCUUCAGAGCUCGAGAACAUCUUCGGAUGCAGAGGAGGCUGGCUUCGGUGGCGCGAUAGCGCCAACCUCCUCAACCUCCAAUGCAUCCCACCACAUGAUGAUGCCUGAAGGGUUUUGUUUCUUUG	0.387
GACCAAUCUGCCUUCAGAGCUCGAGAACAUCUUCGGAUGCAGAGGGGGCAGGCUUCGGUGGCGCGAUAGCGCCAACGUCCUCAACCUCCAAUGCAUCCCACCAGAUGAUGAUGCCUGAAGAGCCUUGGUUUUUUG	-5.37
GACCAAUCUGCCUUCAGAGCUCGAGAACAUCUUCGGAUGCAGCGGAGGCAGGCUUCGGUGGCGCGAUAGCACGAACGUCCUAAACCUCCAAUGCAUCGCACAACUUGAUGAUGCCUCAAGAGCCUUGGUUUUUUG	-6.52
GACCAAUCUGCCUUCAGAGCUCGAGAACAUCUUCGGAUGCAGAGGGGGCUGGUUUCGGUGGCGCGAUAGCGCCAACGUCCUCAACCUCCAAUGCAUCCCACCACAUGAUGAUGCCUGAAGAGCCUUGGCUUUUUG	-2.72
GACCAAUCUGCCUUCAGAGGUCGAGAACAUCUUCGGAUGCAGAGGAGGCAGGCUUCGGUGGGGCGAUAGCGCCAACGUCCUCAACCUCCAAUGCAUCCCACCAAAUGAUUAUGCCUGAAGUGCCUUGGUUUUUUG	-6.79
